The target in this test is HLA-DR on K562-CD19-HLA-DR cells (alpha chain UniProtKB-P01903, beta chain UniProtKB-P04229) (human) (UniProt P01903). Briefly: cell-based or functional assay.

“anti-HLA-DR iCAR (FLAG tag, scFv of antibody 1D09C3, PD-1 hinge, transmembrane and intracellular domains) (from UniProt Q15116 145-288) (receptor)” showed a CD107a+ population, single against dual CAR-NK cells, K562-CD19-HLA-DR target cells of 2 to 3 fold and an IFN-γ production (ELISA), dual against single CAR-NK cells with K562-CD19-HLA-DR cells of 70 % reduction.

For the origin of these results see patent publication US20260115290A1.
